Reference: the supplement of paper PMC10567573

Assay: protein stability index of a GFP-peptide fusion (GPS, HEK-293T) (PSI 1-6); higher = more stable
Conditions: c terminus: native
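Further: lentivirally expressed fusion library, cells FACS-sorted into six equal-sized GFP/DsRed ratio bins, PSI computed from sequencing read fractions per bin weighted by bin number.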

**Q.** With DGWIRVSSDNVADLHEKYSGSTPP [PSMB5 addP] as the protein, how does the protein stability index (parent: NP_002788.1) read?
**A.** Its protein stability index is 4.78.

**Q.** With LPALFTDLYSQEITAEEAREALPP [SNF8 addP] as the protein, how does the protein stability index (parent: NP_009172.2) read?
**A.** Its protein stability index is 2.03.

**Q.** For CQPISFSGFGAEDDDLGGLGLGPP [POLD2 addP], which protein stability index (parent: NP_006221.1) is on record?
**A.** The protein stability index was 4.45.
